These are literature values, as cited in PMC5394478.

For data set [1], the target named is IFNLR1 Box1-Box2 (Homo sapiens) (UniProt Q8IU57). Kind of data set: Biolayer Interferometry. Background: Biolayer interferometry detects binding as a change in optical thickness at a sensor tip.
Data set [2] deals with IFNLR1 Box1 (Homo sapiens) (UniProt Q8IU57). The experiment in a line: Biolayer Interferometry.

Usually Kd stands for the concentration at which binding is half-saturated. With JAK1 FERM-SH2 (from UniProt P23458), the Kd is 70 nM in data set [1] and 1200 nM in data set [2].
